This is an account of results in publication doi:10.1101/2021.03.12.434960 (bioRxiv, 2021).

What is called stoichiometry N is a count of units in the complex or per binding partner.

The chains are these.
T1: full-length human KIF5B, C-terminal mScarlet-StrepII (human, UniProt P33176 1-963)
T1 sequence: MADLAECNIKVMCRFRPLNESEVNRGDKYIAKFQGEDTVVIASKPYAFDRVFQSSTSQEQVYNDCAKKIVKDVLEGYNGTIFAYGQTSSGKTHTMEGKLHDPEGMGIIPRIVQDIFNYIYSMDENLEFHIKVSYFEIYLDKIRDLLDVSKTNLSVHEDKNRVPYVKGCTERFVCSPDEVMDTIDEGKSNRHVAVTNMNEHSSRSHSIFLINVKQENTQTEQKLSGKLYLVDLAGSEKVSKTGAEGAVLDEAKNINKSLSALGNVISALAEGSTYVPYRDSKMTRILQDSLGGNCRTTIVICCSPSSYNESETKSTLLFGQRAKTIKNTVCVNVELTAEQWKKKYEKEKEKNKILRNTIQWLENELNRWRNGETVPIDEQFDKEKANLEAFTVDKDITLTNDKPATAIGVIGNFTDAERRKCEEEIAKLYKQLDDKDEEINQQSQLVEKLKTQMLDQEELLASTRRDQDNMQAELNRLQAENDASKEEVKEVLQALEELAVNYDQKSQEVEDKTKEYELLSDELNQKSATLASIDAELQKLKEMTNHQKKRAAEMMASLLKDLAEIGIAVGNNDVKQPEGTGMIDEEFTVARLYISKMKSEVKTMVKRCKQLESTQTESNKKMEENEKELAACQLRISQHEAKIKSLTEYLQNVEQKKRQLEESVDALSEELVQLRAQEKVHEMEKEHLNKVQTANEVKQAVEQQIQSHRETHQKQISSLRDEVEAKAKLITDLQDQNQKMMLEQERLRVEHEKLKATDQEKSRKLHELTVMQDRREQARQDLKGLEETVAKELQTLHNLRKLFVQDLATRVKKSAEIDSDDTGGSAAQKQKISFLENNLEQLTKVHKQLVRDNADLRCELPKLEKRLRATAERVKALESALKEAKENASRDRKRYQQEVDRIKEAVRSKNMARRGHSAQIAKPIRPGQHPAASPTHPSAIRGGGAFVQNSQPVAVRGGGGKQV

T2: full-length human KIF5A, C-terminal mScarlet-StrepII (human, UniProt Q12840 1-1032)
T2 sequence: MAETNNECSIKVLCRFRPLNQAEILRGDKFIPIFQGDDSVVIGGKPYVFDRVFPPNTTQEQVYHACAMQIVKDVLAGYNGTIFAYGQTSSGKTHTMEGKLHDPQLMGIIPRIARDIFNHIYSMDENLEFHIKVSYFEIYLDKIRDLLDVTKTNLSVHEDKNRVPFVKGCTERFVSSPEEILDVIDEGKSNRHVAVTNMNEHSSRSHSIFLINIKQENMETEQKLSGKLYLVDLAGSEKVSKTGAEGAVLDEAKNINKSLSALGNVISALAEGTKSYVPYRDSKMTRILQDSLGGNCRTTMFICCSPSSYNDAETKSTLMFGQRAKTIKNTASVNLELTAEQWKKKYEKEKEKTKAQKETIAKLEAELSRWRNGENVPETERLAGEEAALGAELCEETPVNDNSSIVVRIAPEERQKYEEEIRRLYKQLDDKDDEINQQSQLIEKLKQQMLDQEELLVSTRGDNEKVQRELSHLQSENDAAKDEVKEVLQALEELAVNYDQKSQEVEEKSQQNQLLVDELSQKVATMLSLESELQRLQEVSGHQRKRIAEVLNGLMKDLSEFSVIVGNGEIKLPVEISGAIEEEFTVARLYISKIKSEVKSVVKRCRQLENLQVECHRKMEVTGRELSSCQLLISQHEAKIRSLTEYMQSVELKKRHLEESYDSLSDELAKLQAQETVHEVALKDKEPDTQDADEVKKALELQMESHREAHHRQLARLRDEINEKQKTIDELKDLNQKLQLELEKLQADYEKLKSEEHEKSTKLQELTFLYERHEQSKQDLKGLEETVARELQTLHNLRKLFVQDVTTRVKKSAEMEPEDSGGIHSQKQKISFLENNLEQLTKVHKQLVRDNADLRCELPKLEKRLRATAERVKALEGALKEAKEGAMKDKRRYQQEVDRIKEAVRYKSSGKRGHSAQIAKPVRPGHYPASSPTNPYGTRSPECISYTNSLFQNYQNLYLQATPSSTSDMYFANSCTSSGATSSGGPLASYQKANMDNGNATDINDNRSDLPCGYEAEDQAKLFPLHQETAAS

T3: KIF5B-Δhinge (Δ505-610), C-terminal mScarlet-StrepII (human, UniProt P33176 1-963, Δ505-610)
T3 sequence: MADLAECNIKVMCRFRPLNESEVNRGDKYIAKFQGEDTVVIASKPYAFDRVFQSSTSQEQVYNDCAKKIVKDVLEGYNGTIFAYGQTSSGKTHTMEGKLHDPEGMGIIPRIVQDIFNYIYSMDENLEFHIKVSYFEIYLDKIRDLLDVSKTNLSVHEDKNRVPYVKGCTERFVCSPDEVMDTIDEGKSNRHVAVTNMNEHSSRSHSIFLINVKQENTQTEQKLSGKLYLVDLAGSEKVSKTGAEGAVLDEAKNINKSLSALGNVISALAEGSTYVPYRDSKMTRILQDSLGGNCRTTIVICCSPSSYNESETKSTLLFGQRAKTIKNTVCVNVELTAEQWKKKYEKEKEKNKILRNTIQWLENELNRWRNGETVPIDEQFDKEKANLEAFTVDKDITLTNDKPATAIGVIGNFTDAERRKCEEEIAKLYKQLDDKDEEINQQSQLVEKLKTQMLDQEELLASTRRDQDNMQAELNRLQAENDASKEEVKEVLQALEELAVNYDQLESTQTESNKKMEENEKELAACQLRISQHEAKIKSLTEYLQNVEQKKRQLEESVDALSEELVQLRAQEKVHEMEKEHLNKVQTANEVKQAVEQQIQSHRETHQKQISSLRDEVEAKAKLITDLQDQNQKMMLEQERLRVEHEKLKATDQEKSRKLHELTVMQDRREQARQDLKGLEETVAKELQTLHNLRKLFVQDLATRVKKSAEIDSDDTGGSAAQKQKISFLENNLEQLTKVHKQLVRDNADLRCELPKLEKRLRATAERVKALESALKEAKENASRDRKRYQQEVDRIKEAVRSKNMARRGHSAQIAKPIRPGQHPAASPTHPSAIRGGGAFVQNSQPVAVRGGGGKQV

B1: human KLC1 with N-terminal 6xHis-FLAG (co-expressed with KIF5) (natural protein)
chain: MYDNMSTMVYIKEDKLEKLTQDEIISKTKQVIQGLEALKNEHNSILQSLLETLKCLKKDDESNLVEEKSNMIRKSLEMLELGLSEAQVMMALSNHLNAVESEKQKLRAQVRRLCQENQWLRDELANTQQKLQKSEQSVAQLEEEKKHLEFMNQLKKYDDDISPSEDKDTDSTKEPLDDLFPNDEDDPGQGIQQQHSSAAAAAQQGGYEIPARLRTLHNLVIQYASQGRYEVAVPLCKQALEDLEKTSGHDHPDVATMLNILALVYRDQNKYKDAANLLNDALAIREKTLGKDHPAVAATLNNLAVLYGKRGKYKEAEPLCKRALEIREKVLGKDHPDVAKQLNNLALLCQNQGKYEEVEYYYQRALEIYQTKLGPDDPNVAKTKNNLASCYLKQGKFKQAETLYKEILTRAHEREFGSVDDENKPIWMHAEEREECKGKQKDGTSFGEYGGWYKACKVDSPTVTTTLKNLGALYRRQGKFEAAETLEEAAMRSRKQGLDNVHKQRVAEVLNDPENMEKRRSRESLNVDVVKYESGPDGGEEVSMSVEWNGGVSGRASFCGKRQQQQWPGRRHR
B2: full-length human KIF5C, C-terminal mScarlet-StrepII (natural protein)
chain: MADPAECSIKVMCRFRPLNEAEILRGDKFIPKFKGDETVVIGQGKPYVFDRVLPPNTTQEQVYNACAKQIVKDVLEGYNGTIFAYGQTSSGKTHTMEGKLHDPQLMGIIPRIAHDIFDHIYSMDENLEFHIKVSYFEIYLDKIRDLLDVSKTNLAVHEDKNRVPYVKGCTERFVSSPEEVMDVIDEGKANRHVAVTNMNEHSSRSHSIFLINIKQENVETEKKLSGKLYLVDLAGSEKVSKTGAEGAVLDEAKNINKSLSALGNVISALAEGTKTHVPYRDSKMTRILQDSLGGNCRTTIVICCSPSVFNEAETKSTLMFGQRAKTIKNTVSVNLELTAEEWKKKYEKEKEKNKTLKNVIQHLEMELNRWRNGEAVPEDEQISAKDQKNLEPCDNTPIIDNIAPVVAGISTEEKEKYDEEISSLYRQLDDKDDEINQQSQLAEKLKQQMLDQDELLASTRRDYEKIQEELTRLQIENEAAKDEVKEVLQALEELAVNYDQKSQEVEDKTRANEQLTDELAQKTTTLTTTQRELSQLQELSNHQKKRATEILNLLLKDLGEIGGIIGTNDVKTLADVNGVIEEEFTMARLYISKMKSEVKSLVNRSKQLESAQMDSNRKMNASERELAACQLLISQHEAKIKSLTDYMQNMEQKRRQLEESQDSLSEELAKLRAQEKMHEVSFQDKEKEHLTRLQDAEEMKKALEQQMESHREAHQKQLSRLRDEIEEKQKIIDEIRDLNQKLQLEQEKLSSDYNKLKIEDQEREMKLEKLLLLNDKREQAREDLKGLEETVSRELQTLHNLRKLFVQDLTTRVKKSVELDNDDGGGSAAQKQKISFLENNLEQLTKVHKQLVRDNADLRCELPKLEKRLRATAERVKALESALKEAKENAMRDRKRYQQEVDRIKEAVRAKNMARRAHSAQIAKPIRPGHYPASSPTAVHAIRGGGGSSSNSTHYQK
B3: KLC1-CC (aa 1-200), N-terminal 6xHis-2xStrepII-sfGFP (domain or fragment)
chain: MYDNMSTMVYIKEDKLEKLTQDEIISKTKQVIQGLEALKNEHNSILQSLLETLKCLKKDDESNLVEEKSNMIRKSLEMLELGLSEAQVMMALSNHLNAVESEKQKLRAQVRRLCQENQWLRDELANTQQKLQKSEQSVAQLEEEKKHLEFMNQLKKYDDDISPSEDKDTDSTKEPLDDLFPNDEDDPGQGIQQQHSSAAA

Series [1] has as its target T1, full-length human KIF5B, C-terminal ….
Series [2] deals with T2, full-length human KIF5A, C-terminal ….
Series [3] concerns the target B2.
The series “SEC-MALS” concerns the molecule itself. In words: SEC-MALS. A general note: In gel filtration, larger molecules generally elute earlier.
Series [4] concerns the target T3, KIF5B-Δhinge (Δ505-610), C-terminal …. In words: TIRF microscopy on surface-bound microtubules.

On to B1, for which the “stoichiometry N” value in series [1], in series [2] and in series [3] was roughly 0.8 KLC1 per KHC throughout.

For the molecule B2, in the series “SEC-MALS”, the “stoichiometry N” value was determined as 2.

As for B3, the binding result in series [4] is given as “binds”.
